Data on three molecules can be found in patent US6977240 (Takeda / Millennium, dated 2005).

Assay [1] has as its target human ObR long form, expressed on transfected cells (human) (UniProt P48357). Briefly: cell-based or functional assay.
Assay [2] deals with T1, murine short form ObR (clone famj5312), expressed on COS cells (mouse, UniProt P48356 23-889).
T1 construct: also called mouse ObR; mouse short form
T1 sequence: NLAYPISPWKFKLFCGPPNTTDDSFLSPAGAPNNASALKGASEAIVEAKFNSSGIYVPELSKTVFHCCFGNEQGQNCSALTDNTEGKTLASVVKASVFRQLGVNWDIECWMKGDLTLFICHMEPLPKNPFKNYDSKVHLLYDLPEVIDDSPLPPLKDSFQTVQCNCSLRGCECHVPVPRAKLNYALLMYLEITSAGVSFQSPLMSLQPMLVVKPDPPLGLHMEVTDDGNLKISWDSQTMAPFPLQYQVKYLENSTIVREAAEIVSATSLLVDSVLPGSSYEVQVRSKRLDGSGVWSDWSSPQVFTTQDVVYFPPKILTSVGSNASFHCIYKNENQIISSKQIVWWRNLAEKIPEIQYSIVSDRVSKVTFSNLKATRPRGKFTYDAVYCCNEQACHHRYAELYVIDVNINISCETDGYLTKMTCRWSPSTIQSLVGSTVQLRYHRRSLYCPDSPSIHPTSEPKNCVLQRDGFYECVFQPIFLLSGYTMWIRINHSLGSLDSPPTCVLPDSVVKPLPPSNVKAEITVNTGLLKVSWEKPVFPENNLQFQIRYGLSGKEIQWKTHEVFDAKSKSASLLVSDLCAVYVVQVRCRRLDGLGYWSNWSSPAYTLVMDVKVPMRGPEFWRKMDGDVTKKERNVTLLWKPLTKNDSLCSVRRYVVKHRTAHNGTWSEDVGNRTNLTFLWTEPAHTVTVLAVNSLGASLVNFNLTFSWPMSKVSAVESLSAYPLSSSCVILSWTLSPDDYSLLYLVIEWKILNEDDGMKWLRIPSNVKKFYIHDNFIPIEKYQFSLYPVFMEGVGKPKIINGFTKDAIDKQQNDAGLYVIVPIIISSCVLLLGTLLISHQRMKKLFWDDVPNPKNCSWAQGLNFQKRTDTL
Briefly: 1 nM AP-OB on transfected COS cells; reference human long form ObR; laid to surface expression by the filing. The protocol:
COS-1, H-35 and Hep3B cells were transfected with plasmid DNA by the DEAE-dextran method (Lopata et al., 1989, *Nucleic Acids Res.* 12:5707–5717); HepG2 cells by the calcium phosphate method (Graham et al., 1973, *Virology* 52:456–461); and COS-7 cells by the lipofectamine method. Subcultures of COS cells were maintained for 16 hours in serum-free medium prior to the activation of STAT proteins by treatment with cytokines for 15 minutes. DNA binding by STAT proteins was determined by EMSA on whole cell extracts as described in Sadowski et al. (1993, *Science* 26:1739–1744). […] CAT activities were quantitated by testing serial dilutions of cell extracts, normalized to the expression of the cotransfected marker plasmid pIE-MUP (Morella et al., 1995, *J. Biol. Chem.* 270:[…]), and are expressed relative the value of the untreated control cultures in each experimental series (defined as =1.0). Quantitative cell surface binding of the AP-OB fusion protein (Section 6) was done essentially as outlined by Cheng and Flanagan (1994, Cell 79:157–168).
To determine whether ObR has the ability to recruit the cellular signaling machinery, COS cells were transiently transfected with expression vectors for the two representative forms of ObR, mouse short form (also corresponding to a mutated form detected in db/db mice) and human long form. […]

The target in assay [3] is T1, murine short form ObR (clone famj5312), …. As to the kind of experiment: Scatchard transformation of AP-OB binding to transfected COS cells. The protocol:
(§1) FIG. 2B-1 Binding isotherm and Scatchard analysis of the interaction of AP-Ob and ObR. COS-7 cells transfected with the obR cDNA were incubated with various concentrations of the AP-Ob (mouse) fusion protein FIG. 2B-2. Scatchard transformation is shown as an inset. Paragraph beginning at page 16, line 3, please replace the paragraph with the following text:
(§2) After transient transfection of the ObR clone into COS cells, strong binding of 1 nM murine AP-Ob is detected (relative to mock transfected COS cells or ObR transfected COS cells incubated with unfused AP) (FIG. 2A). […] A fusion between AP and human Ob also binds mouse ObR with high affinity, as does a fusion protein with mouse leptin at the N-terminus and AP at the C-terminus (Ob-AP).
(§3) To determine whether ObR has the ability to recruit the cellular signaling machinery, COS cells were transiently transfected with expression vectors for the two representative forms of ObR, mouse short form (also corresponding to a mutated form detected in db/db mice) and human long form. Two days after transfection, cells were incubated in 1 nM human or mouse alkaline phosphatase-OB, and cell surface expression of ObR was detected as indicated by specific binding of the alkaline phosphatase-OB (AP-OB) fusion protein.

The target in assay [4] is T2, human ObR long form, expressed on transfected cells (human, UniProt P48357 21-1165).
T2 construct: also called human long form; long form of ObR
T2 sequence: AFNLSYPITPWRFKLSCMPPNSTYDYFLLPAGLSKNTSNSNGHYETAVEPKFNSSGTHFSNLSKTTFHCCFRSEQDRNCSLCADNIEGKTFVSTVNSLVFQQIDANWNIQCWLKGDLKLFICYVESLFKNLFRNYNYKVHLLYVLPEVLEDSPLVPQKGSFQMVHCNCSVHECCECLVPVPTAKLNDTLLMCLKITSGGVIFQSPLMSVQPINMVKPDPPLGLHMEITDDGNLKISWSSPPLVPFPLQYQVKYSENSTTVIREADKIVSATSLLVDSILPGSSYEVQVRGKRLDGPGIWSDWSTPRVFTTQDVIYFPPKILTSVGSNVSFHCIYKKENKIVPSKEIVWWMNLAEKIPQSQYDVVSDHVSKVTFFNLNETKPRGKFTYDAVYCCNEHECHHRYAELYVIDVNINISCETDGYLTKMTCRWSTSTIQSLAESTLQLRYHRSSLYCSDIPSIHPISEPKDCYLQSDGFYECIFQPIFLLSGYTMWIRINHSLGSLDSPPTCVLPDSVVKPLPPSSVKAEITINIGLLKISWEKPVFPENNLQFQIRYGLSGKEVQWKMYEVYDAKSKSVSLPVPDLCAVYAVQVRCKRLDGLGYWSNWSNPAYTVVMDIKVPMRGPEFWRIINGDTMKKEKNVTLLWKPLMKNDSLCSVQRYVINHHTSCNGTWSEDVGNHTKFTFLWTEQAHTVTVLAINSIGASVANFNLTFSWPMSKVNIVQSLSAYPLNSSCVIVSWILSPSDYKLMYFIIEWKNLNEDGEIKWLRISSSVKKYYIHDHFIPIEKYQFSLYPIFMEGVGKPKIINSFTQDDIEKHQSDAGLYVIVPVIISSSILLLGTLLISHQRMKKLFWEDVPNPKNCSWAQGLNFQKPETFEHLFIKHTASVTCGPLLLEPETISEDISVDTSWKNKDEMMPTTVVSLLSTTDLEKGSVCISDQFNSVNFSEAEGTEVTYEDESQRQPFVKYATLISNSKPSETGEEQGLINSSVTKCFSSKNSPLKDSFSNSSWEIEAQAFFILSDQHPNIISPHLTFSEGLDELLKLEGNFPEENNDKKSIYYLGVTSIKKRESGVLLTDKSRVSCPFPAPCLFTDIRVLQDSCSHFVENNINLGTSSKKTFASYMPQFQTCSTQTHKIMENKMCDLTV
The description is as above. The protocol:
as §1, §2, §3

The target in assay [5] is T1, murine short form ObR (clone famj5312), …. Briefly: AP activity bound to COS cells transfected with the ObR clone. The protocol:
(§4) In Situ Fusion Protein Binding. Quartered mouse brains, isolated choroid plexus, cells, and cell lines were rinsed once with HBHA (Hank's balanced salt solution with 0.5 mg/ml BSA, 0.1% NaN_3, 20 mM HEPES [pH 7.0]) in 12-well plates. Tissue was then incubated with tissue culture supernatants containing AP-Ob fusion, Ob-AP fusion, or control supernatants (i.e., supernatants containing unfused AP only, containing AP-OB or OB-AP fusion proteins plus 80-fold molar excess of *E. coli*-derived recombinant OB, or supernatants from mock-transfected COS cells), for 75 minutes with gentle rotation, at room temperature. Samples were then treated as described previously (Cheng, H. J. and Flanagan, J. G., 1994, *Cell* 79:157–168).
as §2

The target of assay [6] is T3, Ob receptor in mouse choroid plexus tissue (mouse, UniProt P48356 23-889).
T3 construct: Native receptor in quartered mouse brain
T3 sequence: T1 sequence
Briefly: AP staining of quartered mouse brain tissue. The protocol: as §4

On to “leptin (Section 16, species not stated) (ligand)”, for which the pIL6RE-SEAP reporter activity in 293 cells, 100 ng/ml leptin for 24 hours in assay [1] is 8 fold.

B1: mouse AP-Ob fusion protein (ligand, UniProt P41160 22-167, looked up, not shown: large carriers)
chain: VPIQKVQDDTKTLIKTIVTRINDISHTQSVSAKQRVTGLDFIPGLHPILSLSKMDQTLAVYQQVLTSLPSQNVLQIANDLENLRDLLHLLAFSKSCSLPQTSGLQKPESLDGVLEASLYSTEVVALSRLQGSLQDILQQLDVSPEC
notes: mature; AP at the N-terminus, predicted mature Ob at the C-terminus; used as COS-7 conditioned medium; also called murine AP-Ob; AP-Ob (mouse)
Take B1: in assay [2], the “fold binding against the long form” value is about 10 fold. Moreover, the Kd in assay [3] was 700 pM; in assay [4], 1000 pM.

B2: unfused AP (alkaline phosphatase) (enzyme, UniProt P05187 23-511, looked up)
chain: IIPVEEENPDFWNREAAEALGAAKKLQPAQTAAKNLIIFLGDGMGVSTVTAARILKGQKKDKLGPEIPLAMDRFPYVALSKTYNVDKHVPDSGATATAYLCGVKGNFQTIGLSAAARFNQCNTTRGNEVISVMNRAKKAGKSVGVVTTTRVQHASPAGTYAHTVNRNWYSDADVPASARQEGCQDIATQLISNMDIDVILGGGRKYMFRMGTPDPEYPDDYSQGGTRLDGKNLVQEWLAKRQGARYVWNRTELMQASLDPSVTHLMGLFEPGDMKYEIHRDSTLDPSLMEMTEAALRLLSRNPRGFFLFVEGGRIDHGHHESRAYRALTETIMFDDAIERAGQLTSEEDTLSLVTADHSHVFSFGGYPLRGSSIFGLAPGKARDRKAYTVLLYGNGPGYVLKDGARPDVTESESGSPEYRQQSAVPLDEETHAGEDVAVFARGPQAHLVHGVQEQTFIAHVMAFAACLEPYTACDLAPPAGTTDAAHPG
notes: Control; also called control AP
As to B2, the binding result in assay [5] and in assay [6] was “no binding” each time.
